Measurements as given in the DeepSol protein solubility set.

Experiment: soluble on expression in E. coli; label from the status in PepcDB or PDB records

Sequence	soluble on expression in E. coli
MKMKHMKPYTTMKTVLSTLAIALAFGPLHNAQACTRILYETGNQSYISGRSMDWADPSAATALWVFPKGMKRDGTVGDNPIKWSAKYGSIIVSFYDAGTADGMNEKGLVANMLYLKEAKWGDATKAGKPTLTAGAWAQYFLDNYATVEEAVTAMANPPFTIIAPSLPNGDAAALHLSISDVNGDSAIFEYIDGKLVIHHGSQYKVMTNSPTFDQQLALNTYWQQIGGSKFLPGTINAADRFVRASYALSASPKYRDNDLALASVFSQIRAVSVPLGITDPDRPNLAMTLWRTFADHTAKIYYFESAVFPAVSWLDMSKVDLTEGAAPKVVRVERGQPLAGELSAALKPAEPFKWLGAE	not soluble
MKNIATGGVLERIRRLAPPHVTAPFRTVAEWREWQLAEGQKRCEEINRQNRQLRVEKILNRSGIQPLHRKCSFANYQVQNDGQRYALSQAKSIADELVTGCTNFAFSGKPGTGKNHLAAAIGNRLLKDGQTVIVVTVADVMSALHASYDDGQSGEKFLRELCEVDLLVLDEIGIQRETKNEQVVLHQIVDRRTASMRSVGMLTNLNYEAMKTLLGERIMDRMTMNGGRWVNFNWESWRPNVGQPGIEK	soluble
MKNKKTLTKVALTTGLALTAVAPYGVGHAEETDQLQVQIQEESFRSGELTQPSQKAPENVVKDALKEKTEQALSPKQVNGETGVDYKVLQKRGSYDGTTLVRIQQTYEGKEVYGHQLTAHVDNSGVIKSVSGDSAQNLKQEELKKPINLSKDEATQYIYTKYGNDINFISEPEVKEVIFVDENNGQASNAYQVTFEAATPNYISGTYLINAQNGDMLKNMVQESNLKASEKLVGALKKSKKSSLTSLTGTGKDDLGISRSFGISKQSNGKYALADYTRGQGIETYDVNYRDITKEESYYPGTLATSTSTTFNDPKAVSAHYLATKVFDFYKDKYNRNSFDNQGQKVVSVVHAWDSGDTNDPKNWQNALSANNGSMLVYGDPIVKAYDVAGHEFTHAVTSSESNLEYYGESGAINEALSDIMGTSIEKYVNNGSFNWTMGEQTGSVFRDMENPTSVPSSLGVPYPDDYSEFNDFNGWDQGGVHFNSSIINKVAYLIAKGGTHNGVTVKGIGEDKMFDIFYYANTDELNMTSNFKELRSACIRVATNKYGANSAEVQAVQKAFDAAKIK	not soluble
MKNLENYFDKAELQHFFECLTDDDNTPQASVFFRLAAFTGMRKSEMLCLEWSDIDFSNHTIRVNKTQSRGDGARLLVQAPKTARSNRTVYLDPTTIKILQHWQVDQKKWLLRFGFNINQGNHYVFANENNEMFQPSKPRKWLEHTLTKYDLKHVTVHAFRHTYATLAFEAHASIKSVQDQLGHSSYRTTLDIYTAVTAKQKNEATEKLANYLNFLEHHHHHH	not soluble
MKNLSLFTDFYEISMMNAYFTKGINPKAKFEVFFRKTPFKNGYIVLAGMHTLINELKNIRFGENELKYLKSFNILDKQFLNFLREFKLNVKISSIEEGRIVFPQAPVVVIEGHLIELLLIEGLVLNIINFESLIATKTARIKESGAKILAELGLRRAQGINGALSASKAAYIGGADFTSNMLAGYKYNIPVTGTMAHSWIMSFETEEQAFREYAKTYPNKVSLLIDTYDTLNSGLKNAIKIFKELKHEEKNNFSIRIDSGDLEYLSKAARKELNRNGLNHVKIIASNELDENIIMYLNSINAPIDIWGVGTNLVTAKGDPSLSGVYKMISIEKNGKFIPKIKISNNAEKSTLPDQKEVARIYLNDQMILDFIFLKEEKDKIKDHLNSRKEFTVFHPIQDNIFKIIKQYDDFEFLTHTVLENGKLRKGYESSLTNIRNKTKLDLSKLEHTYKRIINPHIYKVSISKNLRKLKNKLTKDIKNN	not soluble
MKNMIKAASLGLIILSSSMMANAAEAAQKIGYINTAQVFQALPQREVVLQKMQEEFKDKAAELQAIQADAKTKIEKLKRDGQLMGQDEVEKLRIEIGQLDSKYKIKAQALEQASARREAEEKQKLFKVIQDAVKKVAEKEGYDIVLDTSSMQYGKPEHNLSEKVIKAIK	not soluble
MKNNPLISIYMPTWNRQQLAIRAIKSVLRQDYSNWEMIIVDDCSTSWEQLQQYVTALNDPRITYIHNDINSGACAVRNQAIMLAQGEYITGIDDDDEWTPNRLSVFLAHKQQLVTHAFLYANDYVCQGEVYSQPASLPLYPKSPYSRRLFYKRNIIGNQVFTWAWRFKECLFDTELKAAQDYDIFLRMVVEYGEPWKVEEATQILHINHGEMQITSSPKKFSGYFHFYRKHKDKFDRASKKYQLFTLYQIRNKRMTWRTLLTLLSVRNGKRLADGIRGRLEHHHHHH	soluble
MKNPRHIAVIDIGKTNAKLALVDLQNHREIAVLTRPNTVLPGPPWRHFDTDGHWDFLLAALKVLHGEHGIDAISISTHGASVVLLDAQGDLAAPVLDYEHPIPADIAQAYDAIRPPFAQTGSARLANGLNVGAQLFYQFAQDPGLRDRTRHIVGYPQYWGHRLTGEFAWDVTSIGCHTDLWEPVTGRFSSLVDRLGIAEKLAPVRHCADVLGSILPEVAAATGLSADTPVTVGIHDSNASLYPHLLTQEAPFSVVSTGTWVVAMAVGSKVPGLDPTRDTLVNVNAMGQPVPSARFMGGREHEVIQAGQPCPPTPQDVAQVLADSVMILPAVEPASGPFQGRKMRWSGPEPAPGTGPRSAALSFYLALMTSTCLALIAARGVTIVEGPFAQNREFKSMLSVATGRAVLHSQSATGTSMGASLLFSSDRTPPLPQTNVSEEDAQAYRTYAKEWHQQITLEHHHHHH	not soluble
MKNPTVSIIIPVYNAEGTITRCLDSIIHQTYSSIEVIIIDDGSSDLSGSICDNYATKYNYIQVIHKKNEGVSIARQIGVKHSKGLYSIHVDADDYIDKCEIERMMDIALKFNADMVVCDYILEYKKNKFVYQKGMKDACDAFDFLKQIYNGIFIGTLWNKLIKTSLYNNVIFLKQCNYCEDVYILTQILSNNISINYINEALYHYCYDASSLTREINRNYIINRIIFIQEIEKILPLDLDLSRFKAGIKLSILKSGEYTYKEYINLYPNTNIPKELLNKRNLLFLSTANFFIGYQFLKILFNLKKRFKSFHL	not soluble
MKNTLLKLGVCVSLLGITPFVSTISSVQAERKVEHKVIKNETGTISISQLNKNVWVHTELGYFNGEAVPSNGLILNTSKGLVLVDSSWDDKLTKELIEMAEKKFKKSVTDVIITHAHADRIGGIKTLKERGIKAHSTTLTAELAKKNGYEEPLGDLQAITKLKFGNMKVETFYPGKGHTEDNIVVWLPQYNMLVGGCLVKSASAKDLGNITDAYVNEWSTSIENVLKRYENINFVVPGHGEVGDKGLLLHTLDLLK	not soluble
MKNTQFALFMVLNGRATEALTFYQEAFAGDILFKITNQEFKERLNPSLTIPAGEEHWLSHSILQMDTFQLQLADNPLFAGMNTTPTEQLTLSLTVNSRHSAKTIFEKLTCHPESCIIQEPIENEFATFYAIVKDPFGLVTQITHEKQADPTKKGS	not soluble
MKNWLAYINSLHSREIDLGLSRITSLAEKLSLNNFACPVVTVAGTNGKGSVVKSLESIYLAAGYKVAAYTSPHLLQFNERLRLNGEPATDELFIEAFKFIEDNRNHQPLSFFEFTTLAIFYICKKQNLDILLLEVGLGGRLDAVNIVEPDVAVITTIDIDHTDWLGEDRESIGREKAGIIRRHKPVIGGDPNLPNSVYEQVHLLEAPFYQLEKDFFAVSTKENWQWQGPTQDYQGLPLPSLKIENIATSLMVIHCLQSQLPVSQHSLIAGIKNAVLPGRFEWIQTPAPIVFDVAHNPQATAYLSEQLRKTDHAGRTLGVVGMLRDKDIPGALKPMLPCIDQWYAGTLSESRGATSANLQNVLSELQVENCYNFDSVADAFKKAVEDCRPQDRIVVFGSFYTVAMAKEVLLGGENGN	soluble
MKNYIAIHPGEILREEYLKEYALSAYALAKALNVPRTRIERIVAENSRITPDTALRLASFFDTTAEFWLNMQAAYDVSVLQAEKADEFSKISKFECRV	not soluble
MKPEDFRASATRPFTGEEYLASLRDDREIYIYGDRVKDVTSHPAFRNAAASMARLYDALHDPQSKEKLCWETDTGNGGYTHKFFRYARSADELRQQRDAIAEWSRLTYGWMGRTPDYKAAFGSALGANPGFYGRFEDNAKTWYKRIQEACLYLNHAIVNPPIDRDKPVDQVKDVFISVDEEVDGGIVVSGAKVVATNSALTHYNFVGQGSAQLLGDNTDFALMFIAPMNTPGMKLICRPSYELVAGIAGSPFDYPLSSRFDENDAILVMDKVFIPWENVLIYRDFERCKQWFPQGGFGRLFPMQGCTRLAVKLDFITGALYKALQCTGSLEFRGVQAQVGEVVAWRNLFWSLTDAMYGNASEWHGGAFLPSAEALQAYRVLAPQAYPEIKKTIEQVVASGLIYLPSGVRDLHNPQLDKYLSTYCRGSGGMGHRERIKILKLLWDAIGSEFGGRHELYEINYAGSQDEIRMQALRQAIGSGAMKGMLGMVEQCMGDYDENGWTVPHLHNPDDINVLDRIRQ	not soluble
MKPKFETVELLSPTGEVVELKVVKRGLAQARPEPVDRNKPAWIKAPLPTGPRYQALKAMVRELRLHTVCQEALCPNIGECWTHGTLTVMILGDICTRACKFCAVHTGNPKGLVDPEEPRRVAEAIARMGVRYVVLTSVDRDDLPDGGASHFAATIRAIKERAPGVLVEALTPDFQGDLKAVETVLAANPEVYAQNLETVRRLTPKVRDPRAGYEQTLKVLAHAKKVRPDILTKSSLMLGLGETEEEILEAMRDLRAAGVDILTLGQYLRPTPAHLPVARYVPPEDFKRYEAWGYELGFREVFAGPLVRSSYRADRVFLEATQR	not soluble
MKPRKQDEKILSDQYSYFEPIISDSCDIKFDGDKRRIGSIFISHEEICFIRKEEDYIFKISLSDVVDYNTVVTIWKNQASLTLNDNRKITFYFVTNSPLTGFISILKTYMQLSRNKETIIPDDNLLINDDDEQTKVEIFDVVGLNYEGRRKELKKLIKKMKTNDAFFFLYSDLKGNELKEELLYEDKVYEIPDYEVIPGVFLQKEPDNPYDENAIKVMISNEYSEFHVGYVPREYASRLVNYIEDTVSCNAYINGGKYKTLDYLEEKIVTKESDYGLRIHVEYKVLEHHHHHH	soluble
MKPTVNVVFNAHHPKDTQPLDKFFDKELKDTHHLDITVGYISEKSLQYLLLIAGTHPDLTITLTCGMHAREGMTAAQLHHARVLHDYLSDHDRGGVFVIPRLRYHGKIYLFHKNQHTDPIAYIGSANLSAIVPGYTSTFETGVILDPAPEDLVLHLNRDVVPLCVPIDTAHVPIIKDQESPMKHVAEATAVSTSDVVAIMSSPFTYSFDLKLKATASSNLNAHNSGGGARKQKNGSFLARNWYEGEIIVGVETTRLPGYPQNKSEFTAVTDDGWSFVCKISGGNGKNLRSKGDLSILGTWLKSRFIEQGALEYGEDATQENIDRFGRTHMTMRYHPDFDVWSFDLSQTPKP	not soluble
MKQKRLTFLLLLISNLFCASAQKWYKPEIDLKVEELLSQMTVEEKLGYIGGIDWMYTKSIDRLGIHRMRMSDGPQGIGTKGKSTAYPATVTLAATWNENLAYQYGKALGRDCRARNINVILGPAVNIYRAPMCGRNFEYMGEDPYLTSRICVGYIKGVQDQGVMATVKHFVANNSDYDRNNISNDIDERTLNEIYFPAYKAAIQEAEVGAIMTSYNLMNGIYTTENPWLLKEVLRNQWGFKGLVMSDWGSTHYCVPAARSGLDLEMAGGEKMNPKDMAYYLKTGDVTMDMVDEKVRHILRILIAFGFKDGTEADKSIALDDPQSVETA	not soluble
MKQTVLKNNLQNLLESAENILLLQGPVGDFFLRLADWLTANGKTVHKFNFNAGDDYFYPPTQAHTVVFNDNYDAFPEFLQEYITQHHIQAVVCFGDTRPYHVIAKRIANENQASFWAFEEGYFRPYYITLEKDGVNAFSPLPRRADFFLEQFPKLAQQEYKAPTPVHGGFTPMAKNAIRYYIELFRNPRKYPDYIHHRAPNAGHYLKPWSLSILKRLNYYIEDIQIAKRVEAGKYGKFFIVPLQVFNDSQVRIHCDFPSVRSFLLHVLSSFAEHAPADTNIIIKHHPMDRGFIDYWRDIKRFIKEHPELKGRVIYVHDVPLPVFLRHGLGMVTINSTSGLSGLIHNMPVKVLGRAYYDIPGITDQNTLAEFWNHPTPPDKELFHAYRMYHLNVTQINGNFYSQVFFPNKKTSNSSTPVI	not soluble
